Laboratory results reported in PMC10397247.
Blank lines part the entries; values can stand above or below the binder they belong to.

Tests used:
Experiment in all cases: two-hybrid library CCNG1;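 further: natural log of median RNA to DNA barcode read ratio; higher means stronger binding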
4H491-bA = molecular target: T1, 4H491-bA
T1 chain: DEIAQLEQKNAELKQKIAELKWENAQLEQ

O16-bN = molecular target: T2, O16-bN
T2 chain: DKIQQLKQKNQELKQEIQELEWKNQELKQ

4H3057-bN = molecular target: T3, 4H3057-bN
T3 chain: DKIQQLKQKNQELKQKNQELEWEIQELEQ

4H797-bN = molecular target: T4, 4H797-bN
T4 chain: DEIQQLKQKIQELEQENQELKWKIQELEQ

4H780-bN = molecular target: T5, 4H780-bN
T5 chain: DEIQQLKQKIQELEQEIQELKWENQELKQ

4H3427-bN = molecular target: T6, 4H3427-bN
T6 chain: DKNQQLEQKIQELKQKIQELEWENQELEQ

4H3112-bN = molecular target: T7, 4H3112-bN
T7 chain: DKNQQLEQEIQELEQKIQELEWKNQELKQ

4H346-bN = molecular target: T8, 4H346-bN
T8 chain: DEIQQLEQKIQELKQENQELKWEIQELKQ

4H3381-bH = molecular target: T9, 4H3381-bH
T9 chain: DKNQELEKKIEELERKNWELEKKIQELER

4H754-bN = molecular target: T10, 4H754-bN
T10 chain: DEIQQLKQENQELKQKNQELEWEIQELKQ

4H457-bN = molecular target: T11, 4H457-bN
T11 chain: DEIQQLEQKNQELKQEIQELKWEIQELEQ

4H918-bN = molecular target: T12, 4H918-bN
T12 chain: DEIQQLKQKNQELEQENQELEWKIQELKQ

4H855-bN = molecular target: T13, 4H855-bN
T13 chain: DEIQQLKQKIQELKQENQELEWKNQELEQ

4H575-bN = molecular target: T14, 4H575-bN
T14 chain: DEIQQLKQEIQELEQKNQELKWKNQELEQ

4H4073-bN = molecular target: T15, 4H4073-bN
T15 chain: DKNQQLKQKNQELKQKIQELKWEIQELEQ

4H2673-bN = molecular target: T16, 4H2673-bN
T16 chain: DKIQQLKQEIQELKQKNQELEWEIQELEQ

4H953-bN = molecular target: T17, 4H953-bN
T17 chain: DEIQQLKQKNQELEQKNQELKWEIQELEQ

4H3010-bN = molecular target: T18, 4H3010-bN
T18 chain: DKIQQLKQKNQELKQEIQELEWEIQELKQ

4H2702-bN = molecular target: T19, 4H2702-bN
T19 chain: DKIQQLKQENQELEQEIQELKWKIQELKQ

4H683-bN = molecular target: T20, 4H683-bN
T20 chain: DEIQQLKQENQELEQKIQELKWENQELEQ

4H3926-bN = molecular target: T21, 4H3926-bN
T21 chain: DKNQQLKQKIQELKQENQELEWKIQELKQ

4H968-bN = molecular target: T22, 4H968-bN
T22 chain: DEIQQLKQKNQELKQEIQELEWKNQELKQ

4H4001-bN = molecular target: T23, 4H4001-bN
T23 chain: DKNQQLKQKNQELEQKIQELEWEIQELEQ

4H967-bN = molecular target: T24, 4H967-bN
T24 chain: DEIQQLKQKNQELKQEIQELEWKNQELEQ

4H687-bN = molecular target: T25, 4H687-bN
T25 chain: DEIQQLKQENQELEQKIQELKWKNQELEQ

4H568-bN = molecular target: T26, 4H568-bN
T26 chain: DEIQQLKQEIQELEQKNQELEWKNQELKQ

4H3843-bN = molecular target: T27, 4H3843-bN
T27 chain: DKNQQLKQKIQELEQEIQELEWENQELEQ

4H3782-bN = molecular target: T28, 4H3782-bN
T28 chain: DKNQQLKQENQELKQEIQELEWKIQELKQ

4H3606-bN = molecular target: T29, 4H3606-bN
T29 chain: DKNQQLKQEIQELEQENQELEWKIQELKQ

4H3189-bN = molecular target: T30, 4H3189-bN
T30 chain: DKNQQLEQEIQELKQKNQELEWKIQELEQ

4H883-bN = molecular target: T31, 4H883-bN
T31 chain: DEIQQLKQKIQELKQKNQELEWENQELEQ

4H462-bN = molecular target: T32, 4H462-bN
T32 chain: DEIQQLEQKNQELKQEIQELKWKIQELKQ

P5bHq = molecular target: T33, P5bHq
T33 chain: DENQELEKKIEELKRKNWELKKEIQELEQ

4H370-bN = molecular target: T34, 4H370-bN
T34 chain: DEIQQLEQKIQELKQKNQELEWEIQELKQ

4H72-bN = molecular target: T35, 4H72-bN
T35 chain: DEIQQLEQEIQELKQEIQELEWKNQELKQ

4H607-bN = molecular target: T36, 4H607-bN
T36 chain: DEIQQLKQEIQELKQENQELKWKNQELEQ

4H331-bN = molecular target: T37, 4H331-bN
T37 chain: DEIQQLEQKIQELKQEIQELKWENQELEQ

P9bHq = molecular target: T38, P9bHq
T38 chain: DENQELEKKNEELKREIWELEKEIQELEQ

P8bHq = molecular target: T39, P8bHq
T39 chain: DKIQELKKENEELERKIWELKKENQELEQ

P7bHq = molecular target: T40, P7bHq
T40 chain: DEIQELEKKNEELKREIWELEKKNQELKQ

P6bHq = molecular target: T41, P6bHq
T41 chain: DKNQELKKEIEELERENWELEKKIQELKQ

P9mSN = molecular target: T42, P9mSN
T42 chain: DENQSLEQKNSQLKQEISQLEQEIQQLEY

P6mSN = molecular target: T43, P6mSN
T43 chain: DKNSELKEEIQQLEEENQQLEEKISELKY

P7mSN = molecular target: T44, P7mSN
T44 chain: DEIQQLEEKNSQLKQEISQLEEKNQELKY

P8mSN = molecular target: T45, P8mSN
T45 chain: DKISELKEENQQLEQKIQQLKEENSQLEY

4H3041-bH = molecular target: T46, 4H3041-bH
T46 chain: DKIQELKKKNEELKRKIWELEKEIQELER

4H349-bH = molecular target: T47, 4H349-bH
T47 chain: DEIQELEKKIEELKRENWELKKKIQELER

4H730-bH = molecular target: T48, 4H730-bH
T48 chain: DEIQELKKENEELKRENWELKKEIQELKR

4H949-bH = molecular target: T49, 4H949-bH
T49 chain: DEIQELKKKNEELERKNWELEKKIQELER

4H3297-bH = molecular target: T50, 4H3297-bH
T50 chain: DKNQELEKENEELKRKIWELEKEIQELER

4H796-bH = molecular target: T51, 4H796-bH
T51 chain: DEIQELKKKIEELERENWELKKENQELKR

4H932-bH = molecular target: T52, 4H932-bH
T52 chain: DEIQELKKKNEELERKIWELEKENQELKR

4H3364-bH = molecular target: T53, 4H3364-bH
T53 chain: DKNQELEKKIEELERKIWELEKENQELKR

4H2931-bH = molecular target: T54, 4H2931-bH
T54 chain: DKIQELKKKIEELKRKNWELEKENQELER

4H2859-bH = molecular target: T55, 4H2859-bH
T55 chain: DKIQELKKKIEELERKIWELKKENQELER

4H56-bH = molecular target: T56, 4H56-bH
T56 chain: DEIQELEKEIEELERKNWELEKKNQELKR

Binder: DEIAQLEQKNAELKQKIAELKWENAQLEQ [4H491-bA]
interaction score (4H491-bA): -0.879 | interaction score (O16-bN): 0.749

Binder: DKIQQLKQEIQELKQKNQELEWEIQELEQ [4H2673-bN]
interaction score (4H3057-bN): -0.47 | interaction score (4H797-bN): -0.839 | interaction score (4H780-bN): -1.43 | interaction score (4H3427-bN): -1.55 | interaction score (4H3112-bN): -0.658 | interaction score (4H346-bN): -0.543 | interaction score (4H3381-bH): -0.468 | interaction score (4H754-bN): -1.07 | interaction score (4H457-bN): -1.88 | interaction score (4H918-bN): -1.57 | interaction score (4H855-bN): -1.2 | interaction score (4H575-bN): -1.53 | interaction score (4H4073-bN): -1.63 | interaction score (4H2673-bN): 0.657 | interaction score (4H953-bN): -1.21 | interaction score (4H3010-bN): 1.39 | interaction score (4H2702-bN): -0.755 | interaction score (4H683-bN): -0.954 | interaction score (4H3926-bN): -0.806 | interaction score (4H968-bN): -0.538

Binder: DKIQELKKKIEELERKIWELKKENQELER [4H2859-bH]
interaction score (4H3041-bH): 1.2 | interaction score (4H349-bH): -0.11 | interaction score (4H491-bA): 1.08 | interaction score (4H730-bH): -0.682 | interaction score (4H3381-bH): 0.199 | interaction score (4H949-bH): -1.01 | interaction score (4H3297-bH): 0.299 | interaction score (4H796-bH): -0.548 | interaction score (4H932-bH): -0.5 | interaction score (4H3364-bH): 1.02 | interaction score (4H2931-bH): -0.182 | interaction score (4H2859-bH): 1.11 | interaction score (4H56-bH): 0.547

Further lines, results first:

interaction score (4H797-bN): -0.933 | interaction score (4H4001-bN): -1.58 | interaction score (4H967-bN): -1.41 | interaction score (4H687-bN): -0.938 | interaction score (4H568-bN): -0.877 | interaction score (4H3843-bN): -1.81 | interaction score (4H3782-bN): -1.38 | interaction score (4H3606-bN): -0.893 | interaction score (4H918-bN): -0.805 | interaction score (4H3189-bN): -1.1 | interaction score (4H883-bN): -1.35 | interaction score (4H953-bN): -1.88 | interaction score (4H462-bN): -0.731 | interaction score (P5bHq): -2.13 | interaction score (4H370-bN): -1.02 | interaction score (4H72-bN): -0.483 | interaction score (4H607-bN): -2.38 | interaction score (4H331-bN): -1.93
Binder: DKNQQLEQEIQELKQKNQELEWKIQELEQ [4H3189-bN]

interaction score (P9bHq): -0.517 | interaction score (P8bHq): 0.944 | interaction score (P7bHq): -0.58 | interaction score (P5bHq): -1.33 | interaction score (P6bHq): 0.519
Binder: DENQELEKKIEELKRKNWELKKEIQELEQ [P5bHq]

interaction score (P9mSN): -0.248 | interaction score (P6mSN): 0.276 | interaction score (P7mSN): -0.951 | interaction score (P8mSN): -1.19
Binder: DKNSELKEEIQQLEEENQQLEEKISELKY [P6mSN]
